This passage reports EC50 [nM], 0% HSA results from patent US12679878B2, “CRF2 receptor agonists and their use in therapy” (SANOFI, priority 2020, dated 2026).

The target in the experiment is human corticotropin-releasing factor 2α (CRF2 α receptor) (human), Q13324. In words: cell-based or functional assay.

Starred links: 1 amine or outer side, 2 acyl side, 3 side chain; linkers in the order of their positions; H or OH if unused. Non-standard residues stand in square brackets, D forms with d. Groups on a side chain read outwards from the residue. No end group written: not given here. *: point of attachment. C18 diacid = O=C(O)CCCCCCCCCCCCCCCCC(=O)*; γGlu = O=C(O)[C@H](CCC(=O)[*:2])N[*:1]; Palmitoyl = CCCCCCCCCCCCCCCC(=O)*; AEEA = NCCOCCOCC(=O)O; Aib = CC(C)(N)C(=O)O

human corticotropin-releasing factor 2α (CRF2 α receptor) (human), Q13324, sequence (Q13324 20-411): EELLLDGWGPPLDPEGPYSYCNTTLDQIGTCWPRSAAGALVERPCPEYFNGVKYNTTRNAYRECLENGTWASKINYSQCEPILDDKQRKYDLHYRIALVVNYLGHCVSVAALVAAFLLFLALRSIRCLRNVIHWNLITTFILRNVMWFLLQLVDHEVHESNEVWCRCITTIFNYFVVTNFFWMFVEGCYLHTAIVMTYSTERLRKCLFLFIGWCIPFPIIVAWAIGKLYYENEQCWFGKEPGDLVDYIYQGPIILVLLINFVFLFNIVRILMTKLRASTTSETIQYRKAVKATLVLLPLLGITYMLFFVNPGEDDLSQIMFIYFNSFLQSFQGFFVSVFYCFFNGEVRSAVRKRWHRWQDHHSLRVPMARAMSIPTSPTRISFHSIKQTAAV

B1: SEQ ID NO: 27 (peptide)
peptide: IVLSLD[dV]PTKLK([γGlu-Palmitoyl])KKLLKQERKRKEREQAEKNARILERV-NH2
modifications: N-terminus assumed
SMILES: CCCCCCCCCCCCCCCC(=O)N[C@@H](CCC(=O)NCCCC[C@H](NC(=O)[C@H](CC(C)C)NC(=O)[C@H](CCCCN)NC(=O)[C@@H](NC(=O)[C@@H]1CCCN1C(=O)[C@H](NC(=O)[C@H](CC(=O)O)NC(=O)[C@H](CC(C)C)NC(=O)[C@H](CO)NC(=O)[C@H](CC(C)C)NC(=O)[C@@H](NC(=O)[C@@H](N)[C@@H](C)CC)C(C)C)C(C)C)[C@@H](C)O)C(=O)N[C@@H](CCCCN)C(=O)N[C@@H](CCCCN)C(=O)N[C@@H](CC(C)C)C(=O)N[C@@H](CC(C)C)C(=O)N[C@@H](CCCCN)C(=O)N[C@@H](CCC(N)=O)C(=O)N[C@@H](CCC(=O)O)C(=O)N[C@@H](CCCNC(=N)N)C(=O)N[C@@H](CCCCN)C(=O)N[C@@H](CCCNC(=N)N)C(=O)N[C@@H](CCCCN)C(=O)N[C@@H](CCC(=O)O)C(=O)N[C@@H](CCCNC(=N)N)C(=O)N[C@@H](CCC(=O)O)C(=O)N[C@@H](CCC(N)=O)C(=O)N[C@@H](C)C(=O)N[C@@H](CCC(=O)O)C(=O)N[C@@H](CCCCN)C(=O)N[C@@H](CC(N)=O)C(=O)N[C@@H](C)C(=O)N[C@@H](CCCNC(=N)N)C(=O)N[C@H](C(=O)N[C@@H](CC(C)C)C(=O)N[C@@H](CCC(=O)O)C(=O)N[C@@H](CCCNC(=N)N)C(=O)N[C@H](C(N)=O)C(C)C)[C@@H](C)CC)C(=O)O
For the molecule B1, the EC50 [nM], 0% HSA came out at 0.01 nM.

B2: SEQ ID NO: 29 (peptide)
peptide: IVLSLD[dV]PTKLK([γGlu-Palmitoyl])KKLLKQERKRKERE[Aib]AEKAARILERV-NH2
modifications: N-terminus assumed
SMILES: CCCCCCCCCCCCCCCC(=O)N[C@@H](CCC(=O)NCCCC[C@H](NC(=O)[C@H](CC(C)C)NC(=O)[C@H](CCCCN)NC(=O)[C@@H](NC(=O)[C@@H]1CCCN1C(=O)[C@H](NC(=O)[C@H](CC(=O)O)NC(=O)[C@H](CC(C)C)NC(=O)[C@H](CO)NC(=O)[C@H](CC(C)C)NC(=O)[C@@H](NC(=O)[C@@H](N)[C@@H](C)CC)C(C)C)C(C)C)[C@@H](C)O)C(=O)N[C@@H](CCCCN)C(=O)N[C@@H](CCCCN)C(=O)N[C@@H](CC(C)C)C(=O)N[C@@H](CC(C)C)C(=O)N[C@@H](CCCCN)C(=O)N[C@@H](CCC(N)=O)C(=O)N[C@@H](CCC(=O)O)C(=O)N[C@@H](CCCNC(=N)N)C(=O)N[C@@H](CCCCN)C(=O)N[C@@H](CCCNC(=N)N)C(=O)N[C@@H](CCCCN)C(=O)N[C@@H](CCC(=O)O)C(=O)N[C@@H](CCCNC(=N)N)C(=O)N[C@@H](CCC(=O)O)C(=O)NC(C)(C)C(=O)N[C@@H](C)C(=O)N[C@@H](CCC(=O)O)C(=O)N[C@@H](CCCCN)C(=O)N[C@@H](C)C(=O)N[C@@H](C)C(=O)N[C@@H](CCCNC(=N)N)C(=O)N[C@H](C(=O)N[C@@H](CC(C)C)C(=O)N[C@@H](CCC(=O)O)C(=O)N[C@@H](CCCNC(=N)N)C(=O)N[C@H](C(N)=O)C(C)C)[C@@H](C)CC)C(=O)O
On to B2, for which the EC50 [nM], 0% HSA worked out at 0.12 nM.

B3: SEQ ID NO: 25 (peptide)
peptide: IVLSLD[dV]PTKLK([γGlu-Palmitoyl])KKLLKQERKRKEREKAEKNARILERV-NH2
modifications: N-terminus assumed
SMILES: CCCCCCCCCCCCCCCC(=O)N[C@@H](CCC(=O)NCCCC[C@H](NC(=O)[C@H](CC(C)C)NC(=O)[C@H](CCCCN)NC(=O)[C@@H](NC(=O)[C@@H]1CCCN1C(=O)[C@H](NC(=O)[C@H](CC(=O)O)NC(=O)[C@H](CC(C)C)NC(=O)[C@H](CO)NC(=O)[C@H](CC(C)C)NC(=O)[C@@H](NC(=O)[C@@H](N)[C@@H](C)CC)C(C)C)C(C)C)[C@@H](C)O)C(=O)N[C@@H](CCCCN)C(=O)N[C@@H](CCCCN)C(=O)N[C@@H](CC(C)C)C(=O)N[C@@H](CC(C)C)C(=O)N[C@@H](CCCCN)C(=O)N[C@@H](CCC(N)=O)C(=O)N[C@@H](CCC(=O)O)C(=O)N[C@@H](CCCNC(=N)N)C(=O)N[C@@H](CCCCN)C(=O)N[C@@H](CCCNC(=N)N)C(=O)N[C@@H](CCCCN)C(=O)N[C@@H](CCC(=O)O)C(=O)N[C@@H](CCCNC(=N)N)C(=O)N[C@@H](CCC(=O)O)C(=O)N[C@@H](CCCCN)C(=O)N[C@@H](C)C(=O)N[C@@H](CCC(=O)O)C(=O)N[C@@H](CCCCN)C(=O)N[C@@H](CC(N)=O)C(=O)N[C@@H](C)C(=O)N[C@@H](CCCNC(=N)N)C(=O)N[C@H](C(=O)N[C@@H](CC(C)C)C(=O)N[C@@H](CCC(=O)O)C(=O)N[C@@H](CCCNC(=N)N)C(=O)N[C@H](C(N)=O)C(C)C)[C@@H](C)CC)C(=O)O
Take B3: the EC50 [nM], 0% HSA stood at 0.09 nM.

B4: SEQ ID NO: 24 (peptide)
peptide: IVLSLD[dV]PTKLK([AEEA-AEEA-γGlu-C18 diacid])QKLLKQERQRKEREQAEKNKRILERV-NH2
modifications: N-terminus assumed
SMILES: CC[C@H](C)[C@H](N)C(=O)N[C@H](C(=O)N[C@@H](CC(C)C)C(=O)N[C@@H](CO)C(=O)N[C@@H](CC(C)C)C(=O)N[C@@H](CC(=O)O)C(=O)N[C@@H](C(=O)N1CCC[C@H]1C(=O)N[C@H](C(=O)N[C@@H](CCCCN)C(=O)N[C@@H](CC(C)C)C(=O)N[C@@H](CCCCNC(=O)COCCOCCNC(=O)COCCOCCNC(=O)CC[C@H](NC(=O)CCCCCCCCCCCCCCCCC(=O)O)C(=O)O)C(=O)N[C@@H](CCC(N)=O)C(=O)N[C@@H](CCCCN)C(=O)N[C@@H](CC(C)C)C(=O)N[C@@H](CC(C)C)C(=O)N[C@@H](CCCCN)C(=O)N[C@@H](CCC(N)=O)C(=O)N[C@@H](CCC(=O)O)C(=O)N[C@@H](CCCNC(=N)N)C(=O)N[C@@H](CCC(N)=O)C(=O)N[C@@H](CCCNC(=N)N)C(=O)N[C@@H](CCCCN)C(=O)N[C@@H](CCC(=O)O)C(=O)N[C@@H](CCCNC(=N)N)C(=O)N[C@@H](CCC(=O)O)C(=O)N[C@@H](CCC(N)=O)C(=O)N[C@@H](C)C(=O)N[C@@H](CCC(=O)O)C(=O)N[C@@H](CCCCN)C(=O)N[C@@H](CC(N)=O)C(=O)N[C@@H](CCCCN)C(=O)N[C@@H](CCCNC(=N)N)C(=O)N[C@H](C(=O)N[C@@H](CC(C)C)C(=O)N[C@@H](CCC(=O)O)C(=O)N[C@@H](CCCNC(=N)N)C(=O)N[C@H](C(N)=O)C(C)C)[C@@H](C)CC)[C@@H](C)O)C(C)C)C(C)C
For B4, the EC50 [nM], 0% HSA is 6.95 nM.

B5: SEQ ID NO: 28 (peptide)
peptide: IVLSLD[dV]PTKLK([γGlu-Palmitoyl])KKLLKQERKRKEREKAEKAARILERV-NH2
modifications: N-terminus assumed
SMILES: CCCCCCCCCCCCCCCC(=O)N[C@@H](CCC(=O)NCCCC[C@H](NC(=O)[C@H](CC(C)C)NC(=O)[C@H](CCCCN)NC(=O)[C@@H](NC(=O)[C@@H]1CCCN1C(=O)[C@H](NC(=O)[C@H](CC(=O)O)NC(=O)[C@H](CC(C)C)NC(=O)[C@H](CO)NC(=O)[C@H](CC(C)C)NC(=O)[C@@H](NC(=O)[C@@H](N)[C@@H](C)CC)C(C)C)C(C)C)[C@@H](C)O)C(=O)N[C@@H](CCCCN)C(=O)N[C@@H](CCCCN)C(=O)N[C@@H](CC(C)C)C(=O)N[C@@H](CC(C)C)C(=O)N[C@@H](CCCCN)C(=O)N[C@@H](CCC(N)=O)C(=O)N[C@@H](CCC(=O)O)C(=O)N[C@@H](CCCNC(=N)N)C(=O)N[C@@H](CCCCN)C(=O)N[C@@H](CCCNC(=N)N)C(=O)N[C@@H](CCCCN)C(=O)N[C@@H](CCC(=O)O)C(=O)N[C@@H](CCCNC(=N)N)C(=O)N[C@@H](CCC(=O)O)C(=O)N[C@@H](CCCCN)C(=O)N[C@@H](C)C(=O)N[C@@H](CCC(=O)O)C(=O)N[C@@H](CCCCN)C(=O)N[C@@H](C)C(=O)N[C@@H](C)C(=O)N[C@@H](CCCNC(=N)N)C(=O)N[C@H](C(=O)N[C@@H](CC(C)C)C(=O)N[C@@H](CCC(=O)O)C(=O)N[C@@H](CCCNC(=N)N)C(=O)N[C@H](C(N)=O)C(C)C)[C@@H](C)CC)C(=O)O
B5: the EC50 [nM], 0% HSA is 0.14 nM.

B6: SEQ ID NO: 26 (peptide)
peptide: IVLSLD[dV]PTKLK([γGlu-Palmitoyl])KKLLKQERKRKERE[Aib]AEKNARILERV-NH2
modifications: N-terminus assumed
SMILES: CCCCCCCCCCCCCCCC(=O)N[C@@H](CCC(=O)NCCCC[C@H](NC(=O)[C@H](CC(C)C)NC(=O)[C@H](CCCCN)NC(=O)[C@@H](NC(=O)[C@@H]1CCCN1C(=O)[C@H](NC(=O)[C@H](CC(=O)O)NC(=O)[C@H](CC(C)C)NC(=O)[C@H](CO)NC(=O)[C@H](CC(C)C)NC(=O)[C@@H](NC(=O)[C@@H](N)[C@@H](C)CC)C(C)C)C(C)C)[C@@H](C)O)C(=O)N[C@@H](CCCCN)C(=O)N[C@@H](CCCCN)C(=O)N[C@@H](CC(C)C)C(=O)N[C@@H](CC(C)C)C(=O)N[C@@H](CCCCN)C(=O)N[C@@H](CCC(N)=O)C(=O)N[C@@H](CCC(=O)O)C(=O)N[C@@H](CCCNC(=N)N)C(=O)N[C@@H](CCCCN)C(=O)N[C@@H](CCCNC(=N)N)C(=O)N[C@@H](CCCCN)C(=O)N[C@@H](CCC(=O)O)C(=O)N[C@@H](CCCNC(=N)N)C(=O)N[C@@H](CCC(=O)O)C(=O)NC(C)(C)C(=O)N[C@@H](C)C(=O)N[C@@H](CCC(=O)O)C(=O)N[C@@H](CCCCN)C(=O)N[C@@H](CC(N)=O)C(=O)N[C@@H](C)C(=O)N[C@@H](CCCNC(=N)N)C(=O)N[C@H](C(=O)N[C@@H](CC(C)C)C(=O)N[C@@H](CCC(=O)O)C(=O)N[C@@H](CCCNC(=N)N)C(=O)N[C@H](C(N)=O)C(C)C)[C@@H](C)CC)C(=O)O
With B6, the EC50 [nM], 0% HSA turned out to be 0.01 nM.
